Source: patent US20230295327A1 (KANAPH THERAPEUTICS, published 2023)

T1: human CD20 on Raji and Ramos cells (human, UniProt P11836 1-297)
T1 sequence (looked up): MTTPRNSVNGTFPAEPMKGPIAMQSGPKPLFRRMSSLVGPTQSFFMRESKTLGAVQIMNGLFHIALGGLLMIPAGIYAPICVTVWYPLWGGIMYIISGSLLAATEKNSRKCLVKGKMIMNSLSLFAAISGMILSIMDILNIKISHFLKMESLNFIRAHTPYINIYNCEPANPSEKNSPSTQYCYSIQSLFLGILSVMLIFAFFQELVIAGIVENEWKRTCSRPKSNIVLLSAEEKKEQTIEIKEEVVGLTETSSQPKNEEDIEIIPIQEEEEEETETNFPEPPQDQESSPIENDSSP


Experiments:
[1] = molecular target: IL-12 receptor of human T cells (human, UniProt P42701 24-662; Q99665 24-862); test: cell-based or functional assay
[2] = molecular target: T1, human CD20 on Raji and Ramos cells; test: cell-based or functional assay

Chain of IL-12 receptor of human T cells (Q99665 24-862, chain 2 of 2, other chains not shown): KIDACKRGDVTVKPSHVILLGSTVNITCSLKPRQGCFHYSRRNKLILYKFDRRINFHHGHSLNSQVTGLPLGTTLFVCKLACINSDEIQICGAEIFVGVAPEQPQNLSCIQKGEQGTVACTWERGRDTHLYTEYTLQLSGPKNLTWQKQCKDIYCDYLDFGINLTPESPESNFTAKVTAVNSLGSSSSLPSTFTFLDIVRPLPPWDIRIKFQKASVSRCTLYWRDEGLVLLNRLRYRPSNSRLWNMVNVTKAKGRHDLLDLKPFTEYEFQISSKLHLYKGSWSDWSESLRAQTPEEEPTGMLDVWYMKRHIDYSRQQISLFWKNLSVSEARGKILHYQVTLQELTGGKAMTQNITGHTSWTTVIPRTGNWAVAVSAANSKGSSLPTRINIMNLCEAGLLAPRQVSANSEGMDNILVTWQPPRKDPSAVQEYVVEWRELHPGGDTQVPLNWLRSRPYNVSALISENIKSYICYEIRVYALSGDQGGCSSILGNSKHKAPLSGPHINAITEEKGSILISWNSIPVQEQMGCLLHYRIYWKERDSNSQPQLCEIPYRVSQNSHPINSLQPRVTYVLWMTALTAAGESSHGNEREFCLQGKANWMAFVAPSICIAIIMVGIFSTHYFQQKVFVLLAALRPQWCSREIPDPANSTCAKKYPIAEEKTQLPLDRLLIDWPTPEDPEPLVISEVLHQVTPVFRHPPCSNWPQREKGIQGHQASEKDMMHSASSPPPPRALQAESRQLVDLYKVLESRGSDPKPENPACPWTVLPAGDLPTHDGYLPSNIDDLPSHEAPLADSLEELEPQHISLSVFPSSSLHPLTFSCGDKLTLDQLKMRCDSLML

p-STAT4 (Tyr693) AlphaLISA in activated human T cells, EC50 [1] [ng/mL]	ADCC Reporter Bioassay on Raji target cells, 50% effective concentration (EC50) [2] [ng/mL]	Binder
0.555	–	T2.01 (anti-hu CD20/hu IL-12, hu IgG1) (bispecific antibody) heavy: not shown light: QIVLSQSPAILSASPGEKVTMTCRASSSVSYIHWFQQKPGSSPKPWIYATSNLASGVPVRFSGSGSGTSYSLTISRVEAEDAATYYCQQWTSNPPTFGGGTKLEIKRTVAAPSVFIFPPSDEQLKSGTASVVCLLNNFYPREAKVQWKVDNALQSGNSQESVTEQDSKDSTYSLSSTLTLSKADYEKHKVYACEVTHQGLSSPVTKSFNRGEC not shown
1.55	–	T2.02 (anti-hu CD20/hu IL-12 mut1, hu IgG1) (bispecific antibody) heavy: not shown light: QIVLSQSPAILSASPGEKVTMTCRASSSVSYIHWFQQKPGSSPKPWIYATSNLASGVPVRFSGSGSGTSYSLTISRVEAEDAATYYCQQWTSNPPTFGGGTKLEIKRTVAAPSVFIFPPSDEQLKSGTASVVCLLNNFYPREAKVQWKVDNALQSGNSQESVTEQDSKDSTYSLSSTLTLSKADYEKHKVYACEVTHQGLSSPVTKSFNRGEC not shown
–	31100	Rituximab (anti-hu CD20 monoclonal antibody) (antibody, human IgG1, kappa, V domains shown) VH: QVQLQQPGAELVKPGASVKMSCKASGYTFTSYNMHWVKQTPGRGLEWIGAIYPGNGDTSYNQKFKGKATLTADKSSSTAYMQLSSLTSEDSAVYYCARSTYYGGDWYFNVWGAGTTVTVSA VL: QIVLSQSPAILSASPGEKVTMTCRASSSVSYIHWFQQKPGSSPKPWIYATSNLASGVPVRFSGSGSGTSYSLTISRVEAEDAATYYCQQWTSNPPTFGGGTKLEIKR
